The target of assay [1] is T1, FLAG-tagged human APRIL (human, UniProt O75888 105-250, limits assumed).
T1 construct: also called FLAG-tagged APRIL; FLAG-APRIL; not shown: FLAG tag
T1 sequence (looked up): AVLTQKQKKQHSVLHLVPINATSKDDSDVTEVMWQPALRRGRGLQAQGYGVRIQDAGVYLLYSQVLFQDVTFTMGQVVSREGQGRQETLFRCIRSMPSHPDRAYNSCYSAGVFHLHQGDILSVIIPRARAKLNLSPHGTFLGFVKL
As to the kind of experiment: FLAG-APRIL ELISA after 10 min at 65 °C, antibody at 1 µg/ml. The method, then:
(§1) The plasmids encoding the VH and VL constructs were mixed in a 1:3 ratio (4 μg in total) and transiently expressed by transfection into HEK293T human embryonic kidney cells (HEK293T/17, ATCC-CRL-11268), using Lipofectamine 2000 transfection reagent (Invitrogen) following the manufacturer's instructions. Cell supernatants were harvested after 5 days and tested for expression of antibody and binding to APRIL using an enzyme-linked immuno assay (ELISA). In these ELISAs, all incubation steps were followed by a wash step with PBST (PBS with 0.01% Tween 20). Maxisorb 96-wells plates (Nunc) were coated with 0.5 μg/ml anti-FLAG (Sigma) or anti-IgG4 (Jackson laboratories) and incubated overnight at 4° C. Subsequently the anti-FLAG coated 96-wells plates were incubated with FLAG-tagged human APRIL for 1 hour at room temperature. Next, supernatants and dilutions thereof were incubated for 1 hour, which was followed by an incubation of 1 hour with mouse anti-human IgG HRP-conjugate (Southern Biotechnology).
(§2) To determine the effect of humanization on the stability of the antibodies, humanized antibodies were exposed to a range of temperatures for 10 minutes. Purified antibodies were diluted to 3.16 μg/ml and dilutions thereof in PBS. Next, these solutions were exposed to 65° C. or 70° C. and residual binding after heat treatment of the antibodies was measured using the FLAG-tagged APRIL ELISA assay as described before (see Table 6).
For orientation: An ELISA detects its analyte on a solid surface through an enzyme-linked reagent.

The target in assay [2] is T1, FLAG-tagged human APRIL. As to the kind of experiment: FLAG-APRIL ELISA after 10 min at 70 °C, antibody at 1 µg/ml. The method, then: as §1, §2
Assay [3] concerns the target T1, FLAG-tagged human APRIL. Briefly: FLAG-APRIL ELISA after 10 min at 65 °C, antibody at 3.16 µg/ml. The method, then: as §1, §2
In assay [4] the target is T1, FLAG-tagged human APRIL. As to the kind of experiment: FLAG-APRIL ELISA after 10 min at 70 °C, antibody at 3.16 µg/ml. The method, then:
as §1, §2

Assay [5] deals with T1, FLAG-tagged human APRIL. As to the kind of experiment: FLAG-APRIL ELISA after 10 min at 65 °C, antibody at 0.316 µg/ml. The method, then: as §1, §2
Assay [6] deals with T1, FLAG-tagged human APRIL. As to the kind of experiment: FLAG-APRIL ELISA after 10 min at 70 °C, antibody at 0.316 µg/ml. Here is the method: as §1, §2
The target of assay [7] is T1, FLAG-tagged human APRIL. Briefly: ELISA: FLAG-tagged human APRIL captured on anti-FLAG plate, purified antibody titrated. The method, then: as §1
A subset of humanized antibodies described above was selected for further analyses. Again, plasmids encoding the VH and VL constructs were mixed in a 1:3 ratio (32 μg) and transiently expressed by transfection into (8*10⁶) HEK293T human embryonic kidney cells (HEK293T), using Lipofectamine 2000 transfection reagent (Invitrogen) according to the manufacturer's instructions. Supernatants were harvested (10 ml) and antibodies were purified using MabSelect Sure Protein A resin according to the manufacturer's instructions (GE Healthcare). Buffer was exchanged for PBS using Zeba desalting columns (Thermo Scientific). The concentration of purified antibodies was determined based on OD280 (Nanodrop ND-1000). The binding of the purified antibodies to APRIL was established using the above described APRIL ELISA. The blocking capability of the humanized antibodies with BCMA and TACI receptors, was tested in a competition ELISA. In these ELISAs, all incubation steps were followed by a wash step with PBST (PBS with 0.01% Tween 20). Maxisorb 96-wells plates (Nunc) were coated with 0.5 μg/ml Fc-BCMA (R&D Systems) or Fc-TACI (R&D Systems) and incubated overnight at 4° C. Next, humanized antibodies and dilutions thereof were incubated, premixed with FLAG-tagged APRIL, for 1 hour, which was followed by an incubation of 1 hour with anti-FLAG HRP-conjugate (Sigma).

Assay [8] has as its target T1, FLAG-tagged human APRIL. Briefly: competition ELISA: antibody premixed with FLAG-tagged APRIL, added to coated Fc-BCMA, anti-FLAG HRP. Here is the method:
A subset of humanized antibodies described above was selected for further analyses. Again, plasmids encoding the VH and VL constructs were mixed in a 1:3 ratio (32 μg) and transiently expressed by transfection into (8*10⁶) HEK293T human embryonic kidney cells (HEK293T), using Lipofectamine 2000 transfection reagent (Invitrogen) according to the manufacturer's instructions. Supernatants were harvested (10 ml) and antibodies were purified using MabSelect Sure Protein A resin according to the manufacturer's instructions (GE Healthcare). Buffer was exchanged for PBS using Zeba desalting columns (Thermo Scientific). The concentration of purified antibodies was determined based on OD280 (Nanodrop ND-1000). The binding of the purified antibodies to APRIL was established using the above described APRIL ELISA. The blocking capability of the humanized antibodies with BCMA and TACI receptors, was tested in a competition ELISA. In these ELISAs, all incubation steps were followed by a wash step with PBST (PBS with 0.01% Tween 20). […] Reactions were stopped with 100 μl 0.5 M H2504 and absorbances were measured at 450 and 620 nm. Calculated EC₅₀ and IC₅₀ representing the concentration at which 50% of the total binding signal or blocking is observed are represented in Table 5.

From patent US20160264674A1 (ADURO BIOTECH HOLDINGS EUROPE B V, published 2016) come the findings set out here.

B1: VH11.VL15 (antibody, human IgG4 S228P, kappa, V domains shown)
VH: QVQLVQSGAEVKKPGASVKVSCKASGYTFTSYVMHWVRQAPGQRLEWMGYINPYNDAPKYNEKFKGRVTITRDTSASTAYMELSSLRSEDTAVYYCARGLGYALYYAMDYWGQGTTVTVSS
VL: DIVMTQSPSTLSASVGDRVTITCKASQNVGNNVAWYQQKPGKAPKLLISSASNRDSGVPSRFSGSGSGTEFTLTISSLQPDDFATYFCQQYNIYPFTFGQGTKLEIKR
notes: Humanized IgG4 (S241P, Kabat) with human kappa, from HEK293T; also called 11.15
As usually defined, the EC50 is the concentration at which the effect is half-maximal. A lower EC50 goes with a more potent agent. Usually IC50 stands for the concentration at which inhibition is half-maximal. B1: the “% residual binding after heat treatment (room temperature = 100%)” value came out at 55.1% with FLAG-tagged human APRIL [1]; 62.4% in the assay with FLAG-tagged human APRIL [2]; 63.1% with FLAG-tagged human APRIL [3]; 59.1% in the assay with FLAG-tagged human APRIL [4]; 74.6% in the assay with FLAG-tagged human APRIL [5]; 82% in the assay with FLAG-tagged human APRIL [6]. Also, a half-maximal response in the assay with FLAG-tagged human APRIL [7] (EC50) required 121 nM. Moreover, the IC50 with FLAG-tagged human APRIL [8] was 4.3 nM.
